Experimental data: patent US20250320281A1

Legend:
Assay in all cases: cell-based or functional assay
[1] = molecular target: HIV-1 Env of isolate 94UG103 (pseudovirus) (HIV-1)
[2] = molecular target: HIV-1 Env of isolate VLGCA1 (pseudovirus) (HIV-1)
[3] = molecular target: HIV-1 Env of isolate MGRM-AE-003 (pseudovirus) (HIV-1)
[4] = molecular target: HIV-1 Env of isolate 92UG031 (pseudovirus) (HIV-1)
[5] = molecular target: HIV-1 Env of isolate 94KE105 (pseudovirus) (HIV-1)
[6] = molecular target: HIV-1 Env of isolate 93WR029 (pseudovirus) (HIV-1)
[7] = molecular target: HIV-1 Env of isolate 92TH021 (pseudovirus) (HIV-1)
[8] = molecular target: HIV-1 Env of isolate 92WR026 (pseudovirus) (HIV-1)
[9] = molecular target: HIV-1 Env of isolate 92RW008 (pseudovirus) (HIV-1)
[10] = molecular target: HIV-1 Env of isolate MGRM-AE-002 (pseudovirus) (HIV-1)
[11] = molecular target: HIV-1 Env of isolate MGRM-A-003 (pseudovirus) (HIV-1)
[12] = molecular target: HIV-1 Env of isolate 92UG037 (pseudovirus) (HIV-1)
[13] = molecular target: HIV-1 Env of isolate CMU02 (pseudovirus) (HIV-1)
[14] = molecular target: HIV-1 Env of isolate MGRM-A-010 (pseudovirus) (HIV-1)
[15] = molecular target: HIV-1 Env of isolate MGRM-A-009 (pseudovirus) (HIV-1)
[16] = molecular target: HIV-1 Env of isolate MGRM-A-007 (pseudovirus) (HIV-1)
[17] = molecular target: HIV-1 Env of isolate MGRM-A-012 (pseudovirus) (HIV-1)
[18] = molecular target: HIV-1 Env of isolate MGRM-A-013 (pseudovirus) (HIV-1)
[19] = molecular target: HIV-1 Env of isolate 92WR009 (pseudovirus) (HIV-1)
[20] = molecular target: HIV-1 Env of isolate MGRM-A-008 (pseudovirus) (HIV-1)
[21] = molecular target: HIV-1 Env of isolate MGRM-A-002 (pseudovirus) (HIV-1)
[22] = molecular target: HIV-1 Env of isolate MGRM-A-014 (pseudovirus) (HIV-1)
[23] = molecular target: HIV-1 Env of isolate MGRM-A-011 (pseudovirus) (HIV-1)
[24] = molecular target: HIV-1 Env of isolate MGRM-A-006 (pseudovirus) (HIV-1)
[25] = molecular target: HIV-1 Env of isolate MGRM-A-005 (pseudovirus) (HIV-1)
[26] = molecular target: HIV-1 Env of isolate 92WR021 (pseudovirus) (HIV-1)
[27] = molecular target: HIV-1 Env of isolate 92WR020 (pseudovirus) (HIV-1)
[28] = molecular target: HIV-1 Env of isolate MGRM-A-004 (pseudovirus) (HIV-1)
[29] = molecular target: HIV-1 Env of isolate MGRM-A-001 (pseudovirus) (HIV-1)
[30] = molecular target: HIV-1 Env of isolate 92WR024 (pseudovirus) (HIV-1)
[31] = molecular target: HIV-1 Env of isolate 93UG077 (pseudovirus) (HIV-1)
[32] = molecular target: HIV-1 Env of isolate MGRM-AE-001 (pseudovirus) (HIV-1)

B1: PGT-123 (4858_P08) (antibody, V domains shown)
VH: QLHLQESGPGLVKPPETLSLTCSVSGASINDAYWSWIRQSPGKRPEWVGYVHHSGDTNYNPSLKRRVTFSLDTAKNEVSLKLVDLTAADSATYFCARALHGKRIYGIVALGELFTYFYMDVWGKGTAVTVSS
VL: SSMSVSPGETAKISCGKESIGSRAVQWYQQKPGQPPSLIIYNNQDRPAGVPERFSASPDFRPGTTATLTITNVDAEDEADYYCHIYDARGGTNWVFDRGTTLTVL
[1]
  IC50 (µg/mL), pseudovirus neutralization: 0.678 µg/mL
[2]
  IC50 (µg/mL), pseudovirus neutralization: > 50 µg/mL
[3]
  IC50 (µg/mL), pseudovirus neutralization: > 50 µg/mL
[4]
  IC50 (µg/mL), pseudovirus neutralization: > 50 µg/mL
[5]
  IC50 (µg/mL), pseudovirus neutralization: 0.024 µg/mL
[6]
  IC50 (µg/mL), pseudovirus neutralization: > 50 µg/mL
[7]
  IC50 (µg/mL), pseudovirus neutralization: > 50 µg/mL
[8]
  IC50 (µg/mL), pseudovirus neutralization: 0.012 µg/mL
[9]
  IC50 (µg/mL), pseudovirus neutralization: 0.003 µg/mL
[10]
  IC50 (µg/mL), pseudovirus neutralization: > 50 µg/mL
[11]
  IC50 (µg/mL), pseudovirus neutralization: 0.495 µg/mL
[12]
  IC50 (µg/mL), pseudovirus neutralization: 0.023 µg/mL
[13]
  IC50 (µg/mL), pseudovirus neutralization: > 50 µg/mL
[14]
  IC50 (µg/mL), pseudovirus neutralization: 0.705 µg/mL
[15]
  IC50 (µg/mL), pseudovirus neutralization: 0.004 µg/mL
[16]
  IC50 (µg/mL), pseudovirus neutralization: > 50 µg/mL
[17]
  IC50 (µg/mL), pseudovirus neutralization: 0.192 µg/mL
[18]
  IC50 (µg/mL), pseudovirus neutralization: 0.565 µg/mL
[19]
  IC50 (µg/mL), pseudovirus neutralization: 15.7 µg/mL
[20]
  IC50 (µg/mL), pseudovirus neutralization: > 50 µg/mL
[21]
  IC50 (µg/mL), pseudovirus neutralization: 0.011 µg/mL
[22]
  IC50 (µg/mL), pseudovirus neutralization: 0.003 µg/mL
[23]
  IC50 (µg/mL), pseudovirus neutralization: > 50 µg/mL
[24]
  IC50 (µg/mL), pseudovirus neutralization: > 50 µg/mL
[25]
  IC50 (µg/mL), pseudovirus neutralization: > 50 µg/mL
[26]
  IC50 (µg/mL), pseudovirus neutralization: 0.005 µg/mL
[27]
  IC50 (µg/mL), pseudovirus neutralization: 0.002 µg/mL
[28]
  IC50 (µg/mL), pseudovirus neutralization: > 50 µg/mL
[29]
  IC50 (µg/mL), pseudovirus neutralization: > 50 µg/mL
[30]
  IC50 (µg/mL), pseudovirus neutralization: > 50 µg/mL
[31]
  IC50 (µg/mL), pseudovirus neutralization: 0.028 µg/mL
[32]
  IC50 (µg/mL), pseudovirus neutralization: > 50 µg/mL
